Publication doi:10.1101/2022.04.25.489375 (bioRxiv, 2022)

Legend:
[1] = molecular target: Phosphomannose isomerase from T. kodakarensis (T. kodakarensis); assay: SEC
SEC = molecular target: the molecule itself; assay: SEC

| Molecule | stoichiometry N [1] | stoichiometry N (SEC) |
| --- | --- | --- |
| Phosphomannose isomerase from T. kodakarensis (enzyme) | 2 |  |
| Phosphomannose isomerase from T. barophilus (enzyme, UniProt F0LL70 1-113, looked up) MKAEIKEFIDRGTYRKAPLFEGELPEGSYAQIVEIKPKQTVPKHYHEKQYELFYIISGQAKLGIEEREYDAKPGDIFLVKPKTVHWVVNKKEEPFRLFVIKLNYFGDDSVWLE |  | 2 |
